Here are results for five molecules from patent publication US12415869B2, “Chemically induced protein dimerization systems” (UNIVERSITY OF WASHINGTON, priority 2019, dated 2025).

Assay type in all cases: binding
Test [1] can be described thus: Bio-Layer Interferometry (BLI) of immobilized anchor binders with unlabeled CBD or THC. The note with it: unlabeled CBD, anchor binder immobilized on Super Streptavidin biosensors, steady-state analysis, read-out: dissociation constants (KDs) of anchor binder to CBD. The source says:
To confirm that the nanobody binding only requires CBD, and not the linker between CBD and biotin or the streptavidin, we measured the binding affinity using unlabeled CBD. Anchor-binder hits were expressed in E. coli periplasm and purified by nickel-affinity and size-exclusion chromatography (SEC). Purified nanobodies were enzymatically biotinylated (FIG. 7a-b) and immobilized on streptavidin biosensors to quantify binding affinities to CBD or THC by Bio-Layer Interferometry (BLI) (FIG. 8a).
The nanobody binding kinetics was analyzed using an Octet™ RED96 system (ForteBio) and Streptavidin (SA) or Super Streptavidin (SSA) biosensors. […] Dissociation constants (KDs) of anchor binder-ligand interactions were calculated based on a steady-state analysis using Octet™ RED96 data analysis software. […] KDs, kons, and koffs of the interactions between anchor binder-ligand complexes and dimerization binders were calculated based on a heterogeneous ligand model global fit (2:1) of the data and simulated binding equilibria of the anchor binder and CBD described in Supplementary Notes. […]
We first determined the binding affinity between the CBD anchor 14 (CA-14) and CBD via steady-state analysis (FIG. 8). […] We observed minimal binding between DBs and CBD, but the KDs are too weak to be determined (data not shown).

The subject of test [2] is CA-14-CBD complex. The experiment in a line: BLI of immobilized dimerization binders with CA-14 pre-equilibrated with CBD. The note with it: for Koff / Kon: CBD +. The source says:
(§1) With the purified DB nanobodies in hand, we first sought to determine their binding affinities to the CA-14-CBD. CBD might directly bind to selected dimerization binders, which can affect the affinity measurement. To rule out this possibility, the four nanobodies were biotinylated (FIG. 7c) and immobilized on streptavidin biosensors, and the interaction with CBD was detected by BLI. Only minimal binding between CBD and the dimerization binders was detected (data not shown). Moreover, the binding-dissociation dynamics of the CA-14-CBD complex can also affect the measurement of dimerization binder affinities. To address this, the affinity was measured by a BLI assay in which the biosensor-immobilized dimerization binders were interacted with CA-14 pre-equilibrated with varied concentrations of CBD (FIG. 9a). The concentrations of the CA-14-CBD complex in equilibrium were calculated based on input CA-14 and CBD concentrations. The CA-14-CBD complex concentration was approximated to be constant because only a minimal fraction of the complex bound to the biosensor tips during the BLI assay. It was confirmed that CA-14 only interacts with the dimerization binders in the presence of CBD (FIG. 3a). The KDs of the four dimerization binders varied from 56.4 nM to 19 μM (Table 5).
The nanobody binding kinetics was analyzed using an Octet™ RED96 system (ForteBio) and Streptavidin (SA) or Super Streptavidin (SSA) biosensors. For the anchor-binder analysis, 200 nM biotinylated anchor binders were immobilized on SSA biosensors with a binding assay buffer (1×PBS, pH 7.4, 0.05% Tween 20, 0.2% BSA, 3% methanol; Note: because CBD and THC were dissolved in methanol to make stock solutions, 3% methanol was added to the buffer to fairly compare samples and controls). Serial dilutions of CBD and THC were used for the anchor binder assays. Dissociation constants (KDs) of anchor binder-ligand interactions were calculated based on a steady-state analysis using Octet™ RED96 data analysis software. For the dimerization-binder analysis, 200 nM biotinylated dimerization binders were immobilized on SA biosensors with the binding assay buffer and then assayed with 1 μM CA-14 pre-equilibrated with serial dilutions of CBD or THC. KDs, kons, and koffs of the interactions between anchor binder-ligand complexes and dimerization binders were calculated based on a heterogeneous ligand model global fit (2:1) of the data and simulated binding equilibria of the anchor binder and CBD described in Supplementary Notes.
In order to determine the binding kinetics of our nanobody CID system we performed a series of bio layer interferometry (BLI) experiments. In all experiments we used an Octet RED96 system (ForteBio) and Streptavidin Biosensors (ForteBio). 200 nM biotinylated protein (FIGS. 7b & 4C) were immobilized on biosensors (Super Streptavidin, SSA used for anchor binder; Streptavidin, SA used for dimerization binder) with a binding assay buffer (1×PBS, pH 7.4, 0.05% Tween 20, 0.2% BSA, 3% methanol; Note: because CBD and THC were dissolved in methanol to make stock solutions, 3% methanol was added to the buffer to fairly compare samples and controls). Ligand loading was followed by a quenching step using free biotin. All experiments were performed using four measurements to control for sensor drift and unspecific binding: • No ligand, no analyte • With ligand, no analyte • No ligand, with analyte • With ligand, with analyte
Next, we wanted to determine the binding affinity between CA-14 bound to CBD (referred to as CA-14*) and a panel of DBs. We observed no detectable binding between CA-14 and any of the DBs (FIG. 3a). We also rely on the observation that the DBs have weak binding to CBD, and therefore we can assume that only CA-14* binds the DB loaded to the sensor. We control the CA-14* concentration by using a fixed concentration of 1 μM CA-14 pre-incubated to equilibrium with six different concentrations of CBD. […]

Test [3] can be described thus: BLI of immobilized dimerization binders with CBD alone.
Text: as §1, with “It was confirmed that CA-14 only interacts with the dimerization binders in the presence of CBD (FIG. 3a). The KDs of the four dimerization binders varied from 56.4 nM to 19 μM (Table 5).” left out
We first determined the binding affinity between the CBD anchor 14 (CA-14) and CBD via steady-state analysis (FIG. 8). […] We observed minimal binding between DBs and CBD, but the KDs are too weak to be determined (data not shown). […]

B1: CA-14: anchor binder nanobody; CDR1 SRSRQYD, CDR2 SNQDQPP, CDR3 FKQHHANGA (SEQ ID NO: 1-3) (protein)
VHH: EVQLQASGGGFVQPGGSLRLSCAASGSTSRQYDMGWFRQAPGKEREFVSAISSNQDQPPYYADSVKGRFTISRDNSKNTVYLQMNSLRAEDTATYYCAFKQHHANGAYWGQGTQVTVSS
modifications: left off: small tags and cut ends
Turning to B1, the Kd in test [1] is 6 µM.

B2: DB-11: dimerization binder nanobody; CDRs TTSDNDT, WNGGRDE, YQDNRSWQE (SEQ ID NO: 40-42) (protein)
VHH: EVQLQASGGGFVQPGGSLRLSCAASGTTSDNDTMGWFRQAPGKEREFVSAISWNGGRDEYYADSVKGRFTISRDNSKNTVYLQMNSLRAEDTATYYCAYQDNRSWQEYWGQGTQVTVSS
modifications: left off: small tags and cut ends
B2: in test [2], the Koff was 840 10^−4s^−1 and the Kon is 0.61 10^5 M^−1s^−1.

B3: DB-6: dimerization binder nanobody; CDRs RFSWGEE, WAATPWQ, DEWHIGHVS (SEQ ID NO: 25-27) (protein)
VHH: EVQLQASGGGFVQPGGSLRLSCAASGRFSWGEEMGWFRQAPGKEREFVSAISWAATPWQYYADSVKGRFTISRDNSKNTVYLQMNSLRAEDTATYYCADEWHIGHVSYWGQGTQVTVSS
modifications: left off: small tags and cut ends
For the molecule B3, in test [2], the Koff is on record as 1,820 10^−4s^−1 and the Kon is on record as 0.096 10^5 M^−1s^−1.

B4: DB-21: dimerization binder nanobody; CDRs TTYGQTN, GLQGRDL, FHDFLRMWE (SEQ ID NO: 70-72) (protein)
VHH: EVQLQASGGGFVQPGGSLRLSCAASGTTYGQTNMGWFRQAPGKEREFVSAISGLQGRDLYYADSVKGRFTISRDNSKNTVYLQMNSLRAEDTATYYCAFHDFLRMWEYWGQGTQVTVSS
modifications: left off: small tags and cut ends
Turning to B4, in test [2] (BLI, CA-14* = CA-14 bound to CBD, read-out: CA-14*'s affinity to DB-21 (KBC/α)), the Kd was 0.056 µM. Also, in test [2] (CA-14 with CBD), the dissociation rate koff worked out at 0.000617 s⁻¹. In addition, in test [2], the Koff is on record as 6.17 10^−4s^−1 and the Kon is on record as 0.11 10^5 M^−1s^−1. Further, the “binding between CBD and the dimerization binders” value in test [3] (BLI, CBD alone, data not shown) is recorded as “very weakly”. For the same molecule, in test [3] (worked out from KBC/α 56 nM with α=1,000 as a reasonable guess, read-out: KBC (DB-21's affinity to CBD)), the Kd was 56 µM.

B5: DB-18: dimerization binder nanobody; CDRs GYSRADD, FGETDSF, YHNYTNMFE (SEQ ID NO: 61-63) (protein)
VHH: EVQLQASGGGFVQPGGSLRLSCAASGGYSRADDMGWFRQAPGKEREFVSAISFGETDSFYYADSVKGRFTISRDNSKNTVYLQMNSLRAEDTATYYCAYHNYTNMFEYWGQGTQVTVSS
modifications: left off: small tags and cut ends
Take B5: in test [2], the Koff is 227 10^−4s^−1 and the Kon is 0.41 10^5 M^−1s^−1.
